± gives the standard deviation of the averaged measurements.
Assay: total protein half-life in vivo (active degradation + dilution); higher = more stable protein
[1] = E. coli NCM3722 delta-clpP delta-lon delta-hslV, growth: N-lim chemostat, doubling time 6 h
[2] = E. coli NCM3722 delta-clpP, growth: N-lim chemostat, doubling time 6 h
[3] = E. coli NCM3722 delta-hslV, growth: N-lim chemostat, doubling time 6 h
[4] = E. coli NCM3722 delta-lon, growth: N-lim chemostat, doubling time 6 h
[5] = E. coli NCM3722 delta-smpB, growth: N-lim chemostat, doubling time 6 h
[6] = wild type E. coli NCM3722, growth: C-lim chemostat, doubling time 3 h
[7] = wild type E. coli NCM3722, growth: C-lim chemostat, doubling time 6 h
[8] = wild type E. coli NCM3722, growth: C-lim chemostat, doubling time 12 h
[9] = wild type E. coli NCM3722, growth: N-lim chemostat, doubling time 6 h
[10] = wild type E. coli NCM3722, growth: N-lim chemostat, doubling time 12 h
[11] = wild type E. coli NCM3722, growth: P-lim chemostat, doubling time 6 h
[12] = wild type E. coli NCM3722, growth: P-lim chemostat, doubling time 12 h

Sequence | total protein half-life in vivo [1] [h] | total protein half-life in vivo [2] [h] | total protein half-life in vivo [3] [h] | total protein half-life in vivo [4] [h] | total protein half-life in vivo [5] [h] | total protein half-life in vivo [6] [h] | total protein half-life in vivo [7] [h] | total protein half-life in vivo [8] [h] | total protein half-life in vivo [9] [h] | total protein half-life in vivo [10] [h] | total protein half-life in vivo [11] [h] | total protein half-life in vivo [12] [h]
MGTTKHSKLLILGSGPAGYTAAVYAARANLQPVLITGMEKGGQLTTTTEVENWPGDPNDLTGPLLMERMHEHATKFETEIIFDHINKVDLQNRPFRLNGDNGEYTCDALIIATGASARYLGLPSEEAFKGRGVSACATCDGFFYRNQKVAVIGGGNTAVEEALYLSNIASEVHLIHRRDGFRAEKILIKRLMDKVENGNIILHTNRTLEEVTGDQMGVTGVRLRDTQNSDNIESLDVAGLFVAIGHSPNTAIFEGQLELENGYIKVQSGIHGNATQTSIPGVFAAGDVMDHIYRQAITSAGTGCMAALDAERYLDGLADAK [P0A9P4] | 4.04 ± 0.12 | 3.95 ± 0.56 | 3.57 ± 0.13 | 3.954 ± 0.035 | 3.71 ± 0.12 | 3.16 ± 0.09 | 5.74 ± 0.6 | 10.2 ± 1.8 | 3.8 ± 0.19 | 6.33 ± 0.39 | 5.05 ± 0.65 | 10.7 ± 0.32
MGYLNNVTGYREDLLANRAIVKHGNFALLTPDGLVKNIIPGFENCDATILSTPKLGASFVDYLVTLHQNGGNQQGFGGEGIETFLYVISGNITAKAEGKTFALSEGGYLYCPPGSLMTFVNAQAEDSQIFLYKRRYVPVEGYAPWLVSGNASELERIHYEGMDDVILLDFLPKELGFDMNMHILSFAPGASHGYIETHVQEHGAYILSGQGVYNLDNNWIPVKKGDYIFMGAYSLQAGYGVGRGEAFSYIYSKDCNRDVEI | 4.66 ± 0.65 | 4.57 ± 0.21 | 4.56 ± 0.21 | 4.35 ± 0.076 | 4.52 ± 0.48 | – | 6.13 ± 0.5 | 10.8 ± 1.2 | 4.4 ± 0.1 | 7 ± 0.45 | 5.21 ± 0.26 | 11.1 ± 0.86
MHAYLHCLSHSPLVGYVDPAQEVLDEVNGVIASARERIAAFSPELVVLFAPDHYNGFFYDVMPPFCLGVGATAIGDFGSAAGELPVPVELAEACAHAVMKSGIDLAVSYCMQVDHGFAQPLEFLLGGLDKVPVLPVFINGVATPLPGFQRTRMLGEAIGRFTSTLNKRVLFLGSGGLSHQPPVPELAKADAHMRDRLLGSGKDLPASERELRQQRVISAAEKFVEDQRTLHPLNPIWDNQFMTLLEQGRIQELDAVSNEELSAIAGKSTHEIKTWVAAFAAISAFGNWRSEGRYYRPIPEWIAGFGSLSARTEN [P0ABR9] | 5.32 | – | – | – | – | – | – | – | – | – | – | –
MHDANIRVAIAGAGGRMGRQLIQAALALEGVQLGAALEREGSSLLGSDAGELAGAGKTGVTVQSSLDAVKDDFDVFIDFTRPEGTLNHLAFCRQHGKGMVIGTTGFDEAGKQAIRDAAADIAIVFAANFSVGVNVMLKLLEKAAKVMGDYTDIEIIEAHHRHKVDAPSGTALAMGEAIAHALDKDLKDCAVYSREGHTGERVPGTIGFATVRAGDIVGEHTAMFADIGERLEITHKASSRMTFANGAVRSALWLSGKESGLFDMRDVLDLNNL | 5.49 ± 0.1 | 4.89 ± 0.007 | 5.04 ± 0.21 | 5.38 ± 0.62 | 4.76 ± 0.23 | 2.91 ± 0.068 | 6.1 ± 0.19 | 12 ± 0.68 | 5.092 ± 0.023 | 9.28 ± 0.75 | 5.71 ± 0.34 | 12.5 ± 1.2
MHELSLCQSAVEIIQRQAEQHDVKRVTAVWLEIGALSCVEESAVRFSFEIVCHGTVAQGCDLHIVYKPAQAWCWDCSQVVEIHQHDAQCPLCHGERLRVDTGDSLIVKSIEVE [P0A703] | 4.94 ± 1.4 | 3.51 | – | 3.49 ± 0.32 | 3.57 | – | – | 9.8 | 3.97 ± 0.6 | 5.27 ± 1.4 | 3.77 | 8.0989 ± 0.006
MHFLRRPISLRQRLILTIGAILLVFELISVFWLWHESTEQIQLFEQALRDNRNNDRHIMREIREAVASLIVPGVFMVSLTLFICYQAVRRITRPLAELQKELEARTADNLTPIAIHSATLEIEAVVSALNDLVSRLTSTLDNERLFTADVAHELRTPLAGVRLHLELLAKTHHIDVAPLVARLDQMMESVSQLLQLARAGQSFSSGNYQHVKLLEDVILPSYDELSTMLDQRQQTLLLPESAADITVQGDATLLRMLLRNLVENAHRYSPQGSNIMIKLQEDDGAVMAVEDEGPGIDESKCGELSKAFVRMDSRYGGIGLGLSIVSRITQLHHGQFFLQNRQETSGTRAWVRLKKDQYVANQI | 5.995 ± 0.044 | – | 4.89 ± 1.3 | 6.2 ± 1.3 | 5.5 ± 0.35 | 3.17 ± 0.22 | 5.99 ± 0.74 | 11.5 ± 0.59 | 5.9 ± 0.18 | 12.7 ± 0.62 | 6.25 ± 0.75 | 11.1 ± 1.5
MHITLRQLEVFAEVLKSGSTTQASVMLALSQSAVSAALTDLEGQLGVQLFDRVGKRLVVNEHGRLLYPRALALLEQAVEIEQLFREDNGAIRIYASSTIGNYILPAVIARYRHDYPQLPIELSVGNSQDVMQAVLDFRVDIGFIEGPCHSTEIISEPWLEDELVVFAAPTSPLARGPVTLEQLAAAPWILRERGSGTREIVDYLLLSHLPKFEMAMELGNSEAIKHAVRHGLGISCLSRRVIEDQLQAGTLSEVAVPLPRLMRTLWRIHHRQKHLSNALRRFLDYCDPANVPR [P0ACR4] | 5.84 ± 0.54 | 7.58 | 5.48 | 5.76 ± 0.15 | 6.21 | 2.32 | 5.78 ± 0.65 | 13 | 4.98 ± 0.021 | 9.4289 ± 0.0056 | 5.59 ± 0.33 | 10.5 ± 1.9

Reference: the supplement of paper PMC11246515
